Data on 22 molecules can be found in patent US20250250312A1, “BIFUNCTIONAL PEPTIDE WITH MU[…] VIRUS BINDING PROPERTIES” (priority 2022, published 2025).

To fix the notation:
B1: p4C4, 8, 18, 22 (peptide)
peptide: EEQCKTFCDKFNHEAEDCFYQCS
modifications: not checked
B2: p4C11 (peptide)
peptide: EEQAKTFLDKCNHEAEDLFYQSS
modifications: not checked
B3: p4C15, 19 (peptide)
peptide: EEQAKTFLDKFNHECEDLCYQSS
modifications: not checked
B4: p4C11, 15 (peptide)
peptide: EEQAKTFLDKCNHECEDLFYQSS
modifications: not checked
B5: p4C13 (peptide)
peptide: EEQAKTFLDKFNCEAEDLFYQSS
modifications: not checked
B6: p4C2 (peptide)
peptide: ECQAKTFLDKFNHEAEDLFYQSS
modifications: not checked
B7: p4C8 (peptide)
peptide: EEQAKTFCDKFNHEAEDLFYQSS
modifications: not checked
B8: p4C7 (peptide)
peptide: EEQAKTCLDKFNHEAEDLFYQSS
modifications: not checked
B9: p4C3 (peptide)
peptide: EECAKTFLDKFNHEAEDLFYQSS
modifications: not checked
B10: p4C4 (peptide)
peptide: EEQCKTFLDKFNHEAEDLFYQSS
modifications: not checked
B11: p4C12 (peptide)
peptide: EEQAKTFLDKFCHEAEDLFYQSS
modifications: not checked
B12: p4C8, 12 (peptide)
peptide: EEQAKTFCDKFCHEAEDLFYQSS
modifications: not checked
B13: p4C5 (peptide)
peptide: EEQACTFLDKFNHEAEDLFYQSS
modifications: not checked
B14: p4C9 (peptide)
peptide: EEQAKTFLCKFNHEAEDLFYQSS
modifications: not checked
B15: p4C4, 8 (peptide)
peptide: EEQCKTFCDKFNHEAEDLFYQSS
modifications: not checked
B16: p4C18, 22 (peptide)
peptide: EEQAKTFLDKFNHEAEDCFYQCS
modifications: not checked
B17: p4C10 (peptide)
peptide: EEQAKTFLDCFNHEAEDLFYQSS
modifications: not checked
B18: p6 peptide (peptide)
peptide: EEQAKTFLDKFNHEAEDLFYQSSGLGKGDFR
modifications: not checked
B19: p6(K)8,18(D)12,22 (peptide)
peptide: EEQAKTFKDKFDHEAEDKFYQDSGLGKGDFR
modifications: not checked
B20: p6-rigid-dis (peptide)
peptide: EAAAKEEQAKTFLDKFNHEAEDLFYQSCGLGKGDFRC
modifications: not checked
B21: p6-rigid (peptide)
peptide: EAAAKEEQAKTFLDKFNHEAEDLFYQSSGLGKGDFR
modifications: not checked
B22: p6-dis (peptide)
peptide: EEQAKTFLDKFNHEAEDLFYQSCGLGKGDFRC
modifications: not checked

The target of one assay is T1, receptor binding domain (RBD) of SARS-CoV-2 wildtype (2019-nCoV) (SARS-CoV-2), P0DTC2.
Molecule B1 gave a Kd of 400 nM. In turn, B2 showed an equilibrium dissociation constant (Kd) of 12 nM. With B3, the equilibrium dissociation constant (Kd) stood at 238 nM. Still for that read-out and setting: the value for B4 was 68 nM; that for B5 was 28 nM. For B6, the Kd is 34 nM.

For B7, the Kd was 281 nM. Same read-out and setting: as for B8, the figure is 1940 nM; as for B9, 42 nM; as for B10, 1300 nM. Same read-out and setting: as for B11, the figure is 2050 nM; as for B12, 47 nM; as for B13, 2140 nM. On the same count and under the same terms, as for B14, the figure is 3230 nM. The molecule B15 showed a Kd of 59 nM.

B16: the Kd is 218 nM. Consider B17, for which the Kd was found to be 331 nM.

A further assay deals with receptor binding domain (RBD) of SARS-CoV-2 alpha variant (B.1.1.7) (SARS-CoV-2), P0DTC2.
The molecule B18 had a Kd of 320 nM.

A further assay addresses receptor binding domain (RBD) of SARS-CoV-2 delta variant (B.1.617.2) (SARS-CoV-2), P0DTC2.
Molecule B18 had a Kd of 190 nM.

The next assay has as its target T1, receptor binding domain (RBD) of …. This is another data set of the same source.
The molecule B19 registered a Kd of 10000 nM.

For the next assay the target is unchanged. The source holds these as a separate data set.
B20 came in with a Kd of 5140 nM. The same measure, in the same setting: the value for B21 was 4530 nM; that for B22 was 2600 nM.
